Consider one molecule from patent US20100291075A1 (THERACLONE SCIENCES, published 2010).

The assay addresses recombinant GPI-linked rhesus GM-CSF on the surface of transiently transfected 293 cells (rhesus).

By EC50 (read off the curve) is commonly meant the concentration that produces a half-maximal response.

B1: 1783J22 human monoclonal antibody (whole IgG) (antibody, V domains shown)
VH: EVQLLQSGGGLTHPGGSLRLSCAASGFPFHKYTMTWVRQPPGKGLEWVSSVSGVNGKTYYSPSVRGRAIVSRDDSNSMLFLEIKNMTAGDTALYFCAKGPGGHLHYYYGLDVWGHGTSVTVSS
VL: DIQMTQSPSSLSASIGDRVTISCRASQAINNYVAWFQQSAGKAPKSLIYGASNLQPGVPPRFSGSVSGTNFSLTIDGLQSEDFATYFCQNYFGYPLTFGGGTTLEIKR
With B1, the “EC50 (read off the curve)” value is roughly 0.05 µg/mL.
